Measured values published in doi:10.1101/2020.06.02.129890 (bioRxiv, 2020).

Biological target: Rhodopsin (endogenous in mouse retina) (mouse (endogenous in retina), UniProt P15409 1-348)
Assay: far-Western, overlay or dot blot

B1: GFP-MYO1C-790-1028 (MYO1C tail domain, also known as the cargo domain) (domain or fragment, mouse, UniProt Q9WTI7-2 790-1028, looked up)
chain: PRNVLDTSWPTPPPALREASELLRELCMKNMVWKYCRSISPEWKQQLQQKAVASEIFKGKKDNYPQSVPRLFISTRLGTEEISPRVLQSLGSEPIQYAVPVVKYDRKGYKPRPRQLLLTPSAVVIVEDAKVKQRIDYANLTGISVSSLSDSLFVLHVQREDNKQKGDVVLQSDHVIETLTKTALSADRVNNININQGSITFAGGPGRDGIIDFTSGSELLITKAKNGHLAVVAPRLNSR
binding result: binds
